{"source": "patent US20210130431A1", "about": "(published 2021)", "binders": {"B1": {"name": "TCL1-TCR (TCR, V domains shown)", "Valpha": "GQSLEQPSEVTAVEGAIVQINCTYQTSGFYGLSWYQQHDGGAPTFLSYNGLDGLEETGRFSSFLSRSDSYGYLLLQELQMKDSASYFCLLGSGAGSYQLTFGKGTKLSVIP", "Vbeta": "DAGVTQSPTHLIKTRGQHVTLRCSPISGHKSVSWYQQVLGQGPQFIFQYYEKEERGRGNFPDRFSARQFPNYSSELNVNALLLGDSALYLCASSFTDGGTYEQYFGPGTRLTVT"}}, "key": {"[1]": {"target": "T1, TCL1 70-79, alanine replacement at position 8 peptide on HLA-A*02:01 (human)", "T1 peptide": "SLLPIMWALY", "test": "cytokine release"}, "[2]": {"target": "T2, TCL1 70-79, alanine replacement at position 10 peptide on HLA-A*02:01 (human)", "T2 peptide": "SLLPIMWQLA", "test": "cytokine release"}, "[3]": {"target": "T3, TCL1 70-79, glycine replacement at position 5 peptide on HLA-A*02:01 (human)", "T3 peptide": "SLLPGMWQLY", "test": "cytokine release"}, "[4]": {"target": "T4, TCL1 70-79, glycine replacement at position 3 peptide on HLA-A*02:01 (human)", "T4 peptide": "SLGPIMWQLY", "test": "cytokine release"}, "[5]": {"target": "T5, TCL1 70-79, alanine replacement at position 7 peptide on HLA-A*02:01 (human)", "T5 peptide": "SLLPIMAQLY", "test": "cytokine release"}, "[6]": {"target": "T6, TCL1 70-79, glycine replacement at position 1 peptide on HLA-A*02:01 (human)", "T6 peptide": "GLLPIMWQLY", "test": "cytokine release"}, "[7]": {"target": "T7, TCL1 70-79, alanine replacement at position 6 peptide on HLA-A*02:01 (human)", "T7 peptide": "SLLPIAWQLY", "test": "cytokine release"}, "[8]": {"target": "T8, TCL1 70-79, alanine replacement at position 4 peptide on HLA-A*02:01 (human)", "T8 peptide": "SLLAIMWQLY", "test": "cytokine release"}, "[9]": {"target": "T9, TCL1 70-79, glycine replacement at position 10 peptide on HLA-A*02:01 (human)", "T9 peptide": "SLLPIMWQLG", "test": "cytokine release"}, "[10]": {"target": "T10, TCL1 70-79, alanine replacement at position 5 peptide on HLA-A*02:01 (human)", "T10 peptide": "SLLPAMWQLY", "test": "cytokine release"}, "[11]": {"target": "T11, TCL1 70-79, alanine replacement at position 2 peptide on HLA-A*02:01 (human)", "T11 peptide": "SALPIMWQLY", "test": "cytokine release"}, "[12]": {"target": "T12, TCL1 70-79, glycine replacement at position 9 peptide on HLA-A*02:01 (human)", "T12 peptide": "SLLPIMWQGY", "test": "cytokine release"}, "[13]": {"target": "T13, TCL1 70-79, glycine replacement at position 2 peptide on HLA-A*02:01 (human)", "T13 peptide": "SGLPIMWQLY", "test": "cytokine release"}, "[14]": {"target": "T14, TCL1 70-79, glycine replacement at position 4 peptide on HLA-A*02:01 (human)", "T14 peptide": "SLLGIMWQLY", "test": "cytokine release"}, "[15]": {"target": "T15, TCL1 70-79, glycine replacement at position 7 peptide on HLA-A*02:01 (human)", "T15 peptide": "SLLPIMGQLY", "test": "cytokine release"}, "[16]": {"target": "T16, TCL1 70-79, alanine replacement at position 1 peptide on HLA-A*02:01 (human)", "T16 peptide": "ALLPIMWQLY", "test": "cytokine release"}, "[17]": {"target": "T17, TCL1 70-79, glycine replacement at position 6 peptide on HLA-A*02:01 (human)", "T17 peptide": "SLLPIGWQLY", "test": "cytokine release"}, "[18]": {"target": "T18, TCL1 70-79, glycine replacement at position 8 peptide on HLA-A*02:01 (human)", "T18 peptide": "SLLPIMWGLY", "test": "cytokine release"}, "[19]": {"target": "T19, TCL1 70-79, alanine replacement at position 3 peptide on HLA-A*02:01 (human)", "T19 peptide": "SLAPIMWQLY", "test": "cytokine release"}, "[20]": {"target": "T20, TCL1 70-79, alanine replacement at position 9 peptide on HLA-A*02:01 (human)", "T20 peptide": "SLLPIMWQAY", "test": "cytokine release"}, "[21]": {"target": "T21, TCL1 peptide on HLA-A*02:01 (human)", "T21 peptide": "SLLPIMWQLY", "test": "multimer staining"}}, "data": [{"binder": "B1", "values": [{"measurement": "binding result", "setting": "[1]", "result": "no recognition"}, {"measurement": "binding result", "setting": "[2]", "result": "recognises"}, {"measurement": "binding result", "setting": "[3]", "result": "no recognition"}, {"measurement": "binding result", "setting": "[4]", "result": "no recognition"}, {"measurement": "binding result", "setting": "[5]", "result": "no recognition"}, {"measurement": "binding result", "setting": "[6]", "result": "recognises"}, {"measurement": "binding result", "setting": "[7]", "result": "no recognition"}, {"measurement": "binding result", "setting": "[8]", "result": "no recognition"}, {"measurement": "binding result", "setting": "[9]", "result": "recognises"}, {"measurement": "binding result", "setting": "[10]", "result": "no recognition"}, {"measurement": "binding result", "setting": "[11]", "result": "no recognition"}, {"measurement": "binding result", "setting": "[12]", "result": "no recognition"}, {"measurement": "binding result", "setting": "[13]", "result": "no recognition"}, {"measurement": "binding result", "setting": "[14]", "result": "no recognition"}, {"measurement": "binding result", "setting": "[15]", "result": "no recognition"}, {"measurement": "binding result", "setting": "[16]", "result": "recognises"}, {"measurement": "binding result", "setting": "[17]", "result": "no recognition"}, {"measurement": "binding result", "setting": "[18]", "result": "no recognition"}, {"measurement": "binding result", "setting": "[19]", "result": "no recognition"}, {"measurement": "binding result", "setting": "[20]", "result": "no recognition"}, {"measurement": "binding result", "setting": "[21]", "result": "recognises"}]}]}
